Measurements as given in paper PMC10397247.

Tests used:
[1] = biological target: T1, P6bH1; assay: two-hybrid library CCNG1;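 further: natural log of median RNA to DNA barcode read ratio; higher means stronger binding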
T1 chain: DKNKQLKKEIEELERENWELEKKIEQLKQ

[2] = biological target: T2, P9bH1; assay: two-hybrid library CCNG1;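 further: natural log of median RNA to DNA barcode read ratio; higher means stronger binding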
T2 chain: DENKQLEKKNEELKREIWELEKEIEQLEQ

[3] = biological target: T3, P8bH1; assay: two-hybrid library CCNG1;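 further: natural log of median RNA to DNA barcode read ratio; higher means stronger binding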
T3 chain: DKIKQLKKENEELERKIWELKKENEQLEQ

[4] = biological target: T4, P7bH1; assay: two-hybrid library CCNG1;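 further: natural log of median RNA to DNA barcode read ratio; higher means stronger binding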
T4 chain: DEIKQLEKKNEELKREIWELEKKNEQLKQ

[5] = biological target: T5, P7A; assay: two-hybrid library CCNG1
T5 chain: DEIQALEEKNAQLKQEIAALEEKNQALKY

[6] = biological target: T6, P9A; assay: two-hybrid library CCNG1
T6 chain: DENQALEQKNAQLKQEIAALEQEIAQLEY

[7] = biological target: T7, P8A; assay: two-hybrid library CCNG1
T7 chain: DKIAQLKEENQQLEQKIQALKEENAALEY

[8] = biological target: T8, P8A-bP; assay: two-hybrid library CCNG1
T8 chain: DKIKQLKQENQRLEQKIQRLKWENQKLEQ

[9] = biological target: T9, P9A-bP; assay: two-hybrid library CCNG1
T9 chain: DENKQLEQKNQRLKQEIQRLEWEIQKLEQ

[10] = biological target: T10, 4H3651-AA; assay: two-hybrid library CCmax; conditions: mean of both orientations
T10 chain: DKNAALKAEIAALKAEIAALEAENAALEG

[11] = biological target: GCN2_T; assay: two-hybrid library CCmax
[12] = biological target: T11, 4H_APH; assay: two-hybrid library CCmax; conditions: mean of both orientations
T11 chain: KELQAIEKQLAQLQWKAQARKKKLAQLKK

[13] = biological target: 4H_GCN4; assay: two-hybrid library CCmax; conditions: mean of both orientations
Sequence of 4H_GCN4 (chain, as listed by the source): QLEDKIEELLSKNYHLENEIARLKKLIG

[14] = biological target: T12, 4H_BCR; assay: two-hybrid library CCmax; conditions: mean of both orientations
T12 chain: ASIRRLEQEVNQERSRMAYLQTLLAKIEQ

[15] = biological target: T13, 4H465-AA; assay: two-hybrid library CCmax; conditions: mean of both orientations
T13 chain: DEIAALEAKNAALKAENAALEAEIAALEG

[16] = biological target: T14, 4H535-AA; assay: two-hybrid library CCmax; conditions: mean of both orientations
T14 chain: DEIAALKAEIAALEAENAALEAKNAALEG

[17] = biological target: T15, 4H3020-AA; assay: two-hybrid library CCmax
T15 chain: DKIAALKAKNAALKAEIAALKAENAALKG

[18] = biological target: T16, 4H486-AA; assay: two-hybrid library CCmax; conditions: mean of both orientations
T16 chain: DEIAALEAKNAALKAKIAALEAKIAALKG

[19] = biological target: T17, 4H3782-AA; assay: two-hybrid library CCmax; conditions: mean of both orientations
T17 chain: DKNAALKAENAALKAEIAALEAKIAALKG

[20] = biological target: T18, 4H3705-AA; assay: two-hybrid library CCmax; conditions: mean of both orientations
T18 chain: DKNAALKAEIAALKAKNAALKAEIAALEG

[21] = biological target: T19, 4H58-AA; assay: two-hybrid library CCmax; conditions: mean of both orientations
T19 chain: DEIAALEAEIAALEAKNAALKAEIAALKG

[22] = biological target: T20, 4H355-AA; assay: two-hybrid library CCmax; conditions: mean of both orientations
T20 chain: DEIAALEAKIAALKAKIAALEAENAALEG

[23] = biological target: T21, 4H3365-AA; assay: two-hybrid library CCmax; conditions: mean of both orientations
T21 chain: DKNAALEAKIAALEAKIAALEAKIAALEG

[24] = biological target: T22, 4H895-AA; assay: two-hybrid library CCmax; conditions: mean of both orientations
T22 chain: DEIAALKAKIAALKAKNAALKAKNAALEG

[25] = biological target: T23, P7A-bP; assay: two-hybrid library CCNG1
T23 chain: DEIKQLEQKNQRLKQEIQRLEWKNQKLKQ

[26] = biological target: T24, P6mS; assay: two-hybrid library CC1; conditions: mean of both orientations
T24 chain: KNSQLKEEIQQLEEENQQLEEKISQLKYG

[27] = biological target: T25, P6; assay: two-hybrid library CC1; conditions: mean of both orientations
T25 chain: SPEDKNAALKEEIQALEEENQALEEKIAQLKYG

[28] = biological target: T26, P8mS; assay: two-hybrid library CC1; conditions: mean of both orientations
T26 chain: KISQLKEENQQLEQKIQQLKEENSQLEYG

[29] = biological target: T27, P6SC2; assay: two-hybrid library CC1; conditions: mean of both orientations
T27 chain: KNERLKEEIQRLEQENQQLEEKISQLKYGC

[30] = biological target: T28, P6SC1; assay: two-hybrid library CC1; conditions: mean of both orientations
T28 chain: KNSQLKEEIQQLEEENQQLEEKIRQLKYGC

[31] = biological target: T29, P5mS; assay: two-hybrid library CC1; conditions: mean of both orientations
T29 chain: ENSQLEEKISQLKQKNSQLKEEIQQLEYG

[32] = biological target: T30, P8; assay: two-hybrid library CC1; conditions: mean of both orientations
T30 chain: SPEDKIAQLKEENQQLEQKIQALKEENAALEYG

[33] = biological target: T31, P7; assay: two-hybrid library CC1; conditions: mean of both orientations
T31 chain: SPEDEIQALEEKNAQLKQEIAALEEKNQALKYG

[34] = biological target: T32, P5SC2; assay: two-hybrid library CC1
T32 chain: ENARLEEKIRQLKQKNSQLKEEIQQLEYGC

[35] = biological target: T33, P7mS; assay: two-hybrid library CC1; conditions: mean of both orientations
T33 chain: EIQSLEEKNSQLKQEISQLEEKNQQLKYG

[36] = biological target: T34, P9; assay: two-hybrid library CC1; conditions: mean of both orientations
T34 chain: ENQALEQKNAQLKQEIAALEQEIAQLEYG

[37] = biological target: T35, 4H918-bH; assay: two-hybrid library CCNG1
T35 chain: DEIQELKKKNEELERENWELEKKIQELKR

[38] = biological target: T36, 4H2692-bN; assay: two-hybrid library CCNG1
T36 chain: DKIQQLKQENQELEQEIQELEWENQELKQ

[39] = biological target: T37, 4H2717-bN; assay: two-hybrid library CCNG1
T37 chain: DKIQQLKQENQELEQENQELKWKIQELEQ

[40] = biological target: T38, 4H3277-bN; assay: two-hybrid library CCNG1
T38 chain: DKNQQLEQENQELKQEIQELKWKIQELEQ

[41] = biological target: T39, 4H2915-bN; assay: two-hybrid library CCNG1
T39 chain: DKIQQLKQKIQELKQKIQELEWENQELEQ

[42] = biological target: T40, 4H2839-bN; assay: two-hybrid library CCNG1
T40 chain: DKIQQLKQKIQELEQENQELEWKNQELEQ

[43] = biological target: T41, 4H477-bN; assay: two-hybrid library CCNG1
T41 chain: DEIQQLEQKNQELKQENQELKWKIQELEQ

[44] = biological target: T42, 4H40-bN; assay: two-hybrid library CCNG1
T42 chain: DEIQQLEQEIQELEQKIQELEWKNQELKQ

[45] = biological target: T43, 4H3057-bN; assay: two-hybrid library CCNG1
T43 chain: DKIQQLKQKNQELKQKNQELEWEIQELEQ

[46] = biological target: T44, 4H492-bN; assay: two-hybrid library CCNG1
T44 chain: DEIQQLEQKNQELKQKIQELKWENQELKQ

[47] = biological target: T45, 4H319-bN; assay: two-hybrid library CCNG1
T45 chain: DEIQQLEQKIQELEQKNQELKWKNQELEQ

[48] = biological target: T46, 4H348-bN; assay: two-hybrid library CCNG1
T46 chain: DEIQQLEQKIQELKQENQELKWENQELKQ

[49] = biological target: T47, 4H741-bN; assay: two-hybrid library CCNG1
T47 chain: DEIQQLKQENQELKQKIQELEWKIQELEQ

[50] = biological target: T48, O9-bP; assay: two-hybrid library CCNG1
T48 chain: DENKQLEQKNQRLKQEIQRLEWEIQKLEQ

[51] = biological target: T49, O8-bP; assay: two-hybrid library CCNG1
T49 chain: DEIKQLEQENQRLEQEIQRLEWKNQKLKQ

[52] = biological target: T50, O7-bP; assay: two-hybrid library CCNG1
T50 chain: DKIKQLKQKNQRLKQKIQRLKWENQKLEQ

[53] = biological target: T51, O6-bP; assay: two-hybrid library CCNG1
T51 chain: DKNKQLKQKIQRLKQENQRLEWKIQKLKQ

[54] = biological target: T52, O3-bP; assay: two-hybrid library CCNG1
T52 chain: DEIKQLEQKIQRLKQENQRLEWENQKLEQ

[55] = biological target: T53, O4-bP; assay: two-hybrid library CCNG1
T53 chain: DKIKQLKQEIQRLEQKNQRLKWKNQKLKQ

[56] = biological target: T54, O5-bP; assay: two-hybrid library CCNG1
T54 chain: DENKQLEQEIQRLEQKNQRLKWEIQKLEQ

[57] = biological target: T55, O5-bN; assay: two-hybrid library CCNG1
T55 chain: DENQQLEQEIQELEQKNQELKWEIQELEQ

[58] = biological target: T56, O8-bN; assay: two-hybrid library CCNG1
T56 chain: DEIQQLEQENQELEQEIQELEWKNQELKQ

[59] = biological target: T57, O6-bN; assay: two-hybrid library CCNG1
T57 chain: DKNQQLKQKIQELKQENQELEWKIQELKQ

[60] = biological target: T58, O7-bN; assay: two-hybrid library CCNG1
T58 chain: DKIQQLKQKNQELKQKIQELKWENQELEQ

[61] = biological target: T59, O9-bN; assay: two-hybrid library CCNG1
T59 chain: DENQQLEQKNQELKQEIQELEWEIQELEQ

[62] = biological target: T60, O4-bN; assay: two-hybrid library CCNG1
T60 chain: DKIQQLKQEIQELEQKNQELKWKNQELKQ

DKNKQLKKEIEELERENWELEKKIEQLKQ [P6bH1]
interaction score [1]: -0.419
interaction score [2]: 0.0468
interaction score [3]: 0.525
interaction score [4]: 1.39

DEIQALEEKNAQLKQEIAALEEKNQALKY [P7A]
interaction score [5]: -0.598
interaction score [6]: -0.697
interaction score [7]: 2.24

DKIKQLKQENQRLEQKIQRLKWENQKLEQ [P8A-bP]
interaction score [8]: -0.396
interaction score [9]: 0

DEIKQLEKKNEELKREIWELEKKNEQLKQ [P7bH1]
interaction score [2]: -0.3
interaction score [3]: 1.89
interaction score [4]: -0.0541

DKIKQLKKENEELERKIWELKKENEQLEQ [P8bH1]
interaction score [2]: -0.01
interaction score [3]: -0.114

DKIAALKAKNAALKAEIAALKAENAALKG [4H3020-AA]
interaction score [10]: -1.36
interaction score [11]: -0.848
interaction score [12]: -2.43
interaction score [13]: -0.937
interaction score [14]: -1.87
interaction score [15]: -1.7
interaction score [16]: -1.47
interaction score [17]: 0.962
interaction score [18]: -1.33
interaction score [19]: -1.57
interaction score [20]: -1.78
interaction score [21]: -0.528
interaction score [22]: -1.86
interaction score [23]: -1.49
interaction score [24]: -1.5

DEIKQLEQKNQRLKQEIQRLEWKNQKLKQ [P7A-bP]
interaction score [8]: 1.1
interaction score [9]: -0.571
interaction score [25]: -1.33

ENARLEEKIRQLKQKNSQLKEEIQQLEYGC [P5SC2]
interaction score [26]: 0.24
interaction score [27]: 0.225
interaction score [28]: -2.45
interaction score [29]: 0.408
interaction score [30]: 0.316
interaction score [31]: -2.94
interaction score [32]: -1.1
interaction score [33]: -2.39
interaction score [34]: -2.86
interaction score [35]: -2.77
interaction score [36]: -2.39

DKIQQLKQENQELEQEIQELEWENQELKQ [4H2692-bN]
interaction score [37]: 1.17
interaction score [38]: 0.234
interaction score [39]: -0.423
interaction score [40]: -0.49
interaction score [41]: -0.419
interaction score [42]: -0.832
interaction score [43]: -0.405
interaction score [44]: -0.333
interaction score [45]: 0.294
interaction score [46]: 1.22
interaction score [47]: -0.482
interaction score [48]: 0.502
interaction score [49]: -0.795

DEIKQLEQKIQRLKQENQRLEWENQKLEQ [O3-bP]
interaction score [50]: -1.8
interaction score [51]: -0.905
interaction score [52]: -1.61
interaction score [53]: -0.828
interaction score [54]: -0.797
interaction score [55]: 1.15
interaction score [56]: -1.53

DKIQQLKQEIQELEQKNQELKWKNQELKQ [O4-bN]
interaction score [57]: -0.492
interaction score [58]: -0.553
interaction score [59]: 0.639
interaction score [60]: -0.226
interaction score [61]: -0.542
interaction score [62]: -0.666
